Patent US20260184777A1 (BEIJING SUNGEN BIOMEDICAL TECHNOLOGY, published 2026)
Residue numbers refer to the chain shown, from its start.

T1: human S100A8/A9 heterodimeric antigen, His-tagged (hS100A8/A9-His) (human, UniProt P05109 1-93; P06702 1-114)
T1 sequence 1: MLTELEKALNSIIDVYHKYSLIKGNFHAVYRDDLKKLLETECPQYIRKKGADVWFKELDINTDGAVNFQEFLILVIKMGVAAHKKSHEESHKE
T1 sequence 2: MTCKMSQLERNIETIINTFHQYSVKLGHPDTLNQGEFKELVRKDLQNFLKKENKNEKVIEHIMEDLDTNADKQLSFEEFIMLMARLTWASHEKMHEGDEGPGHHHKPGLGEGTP

T2: S100A1 (human, UniProt P23297 1-94)
T2 sequence (looked up): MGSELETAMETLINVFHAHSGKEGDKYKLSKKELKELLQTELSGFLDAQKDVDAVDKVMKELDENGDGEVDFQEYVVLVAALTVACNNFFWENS

B1: Anti-S100A8/A9 monoclonal antibody (antibody, human IgG4 S228P, lambda, V domains shown)
VH: not shown
VL: SYELTQPPSVSVAPGQTARITCSGDALGDKYASWYQQKPGQAPVLVIYEDSKRPSGIPERFSGSNSGNTATLTISGTQAEDEADYYCQSNDADSVWVFGGGTKLTVLG
notes: also called CM-1; parental antibody
B2: CM-38 (antibody, human IgG4 S228P, lambda, V domains shown)
VH: not shown
VL: B1 VL with A92I
B3: CM-31 (antibody, human IgG4 S228P, lambda, V domains shown)
VH: not shown
VL: B1 VL with S51H
B4: CM-35 (antibody, human IgG4 S228P, lambda, V domains shown)
VH: not shown
VL: B1 VL with Q88D
B5: CM-33 (antibody, human IgG4 S228P, lambda, V domains shown)
VH: not shown
VL: B1 VL with K52R
B6: CM-34 (antibody, human IgG4 S228P, lambda, V domains shown)
VH: not shown
VL: B1 VL with K52P
B7: CM-39 (antibody, human IgG4 S228P, lambda, V domains shown)
VH: not shown
VL: B1 VL with S94A
B8: CM-32 (antibody, human IgG4 S228P, lambda, V domains shown)
VH: not shown
VL: B1 VL with K52H
B9: CM-30 (antibody, human IgG4 S228P, lambda, V domains shown)
VH: not shown
VL: B1 VL with S51A
B10: CM-36 (antibody, human IgG4 S228P, lambda, V domains shown)
VH: not shown
VL: B1 VL with A92V
B11: CM-37 (antibody, human IgG4 S228P, lambda, V domains shown)
VH: not shown
VL: B1 VL with A92L

Legend:
[1] = target: T1, human S100A8/A9 heterodimeric antigen, …
[2] = target: monkey S100A8/A9 heterodimeric antigen (cS100A8/A9) (monkey)
S100A1 = target: T2, S100A1
plague = plague (UniProt P26948 22-170)
[3] = target: T1, human S100A8/A9 heterodimeric antigen, …; experiment: cell-based or functional assay

Binder | IC50, inhibition of IL-6 release from hS100A8/A9-activated human PBMCs [3] | also measured
B1 | – | Kd [1]: 8.95 nM; Kd [2]: 22.8 nM; binding result (S100A1): no binding (tested: 20 µg/mL); binding result (plague): no binding (tested: 20 µg/mL)
B2 | 0.084 µg/mL | –
B3 | 0.48 µg/mL | –
B4 | 0.655 µg/mL | –
B5 | 0.452 µg/mL | –
B6 | 1.22 µg/mL | –
B7 | 0.452 µg/mL | –
B8 | 0.536 µg/mL | –
B9 | 0.434 µg/mL | –
B10 | 0.393 µg/mL | –
B11 | 0.335 µg/mL | –
